Source: IntAct's records for PubMed 35512704

B1: Speckle-type POZ protein (Homo sapiens), O43791 (parent)
chain: MSRVPSPPPPAEMSSGPVAESWCYTQIKVVKFSYMWTINNFSFCREEMGEVIKSSTFSSGANDKLKWCLRVNPKGLDEESKDYLSLYLLLVSCPKSEVRAKFKFSILNAKGEETKAMESQRAYRFVQGKDWGFKKFIRRDFLLDEANGLLPDDKLTLFCEVSVVQDSVNISGQNTMNMVKVPECRLADELGGLWENSRFTDCCLCVAGQEFQAHKAILAARSPVFSAMFEHEMEESKKNRVEINDVEPEVFKEMMCFIYTGKAPNLDKMADDLLAAADKYALERLKVMCEDALCSNLSVENAAEILILADLHSADQLKTQAVDFINYHASDVLETSGWKSMVVSHPHLVAEAYRSLASAQCPFLGPPRKRLKQS

Variants of: B1
Conditions: with kdm5a_human KDM5A

| Variant | effect of a mutation on the interaction |
| --- | --- |
| F102C | with no effect |

Variants of: B1
Conditions: with kdm5c_human KDM5C

| Variant | effect of a mutation on the interaction |
| --- | --- |
| F102C | with no effect |

Variants of: B1
Conditions: with kdm6a_human KDM6A

| Variant | effect of a mutation on the interaction |
| --- | --- |
| F102C | with no effect |

Variants of: B1
Conditions: with vgfr2_human KDR

| Variant | effect of a mutation on the interaction |
| --- | --- |
| F102C | with no effect |

Variants of: B1
Conditions: with lims1_human LIMS1, P48059
Sequence of lims1_human LIMS1, P48059 (P48059 whole entry): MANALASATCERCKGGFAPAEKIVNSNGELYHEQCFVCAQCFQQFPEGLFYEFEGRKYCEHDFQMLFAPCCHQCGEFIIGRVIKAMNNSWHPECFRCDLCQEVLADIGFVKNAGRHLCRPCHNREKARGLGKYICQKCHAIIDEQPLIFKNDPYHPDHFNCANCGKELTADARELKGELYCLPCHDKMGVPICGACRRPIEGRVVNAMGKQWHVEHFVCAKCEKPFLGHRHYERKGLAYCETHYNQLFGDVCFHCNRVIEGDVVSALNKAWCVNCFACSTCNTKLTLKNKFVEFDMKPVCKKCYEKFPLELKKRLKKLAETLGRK

| Variant | effect of a mutation on the interaction |
| --- | --- |
| F102C | with no effect |

Variants of: B1
Conditions: with maga6_human MAGEA6, P43360
Sequence of maga6_human MAGEA6, P43360 (P43360 whole entry): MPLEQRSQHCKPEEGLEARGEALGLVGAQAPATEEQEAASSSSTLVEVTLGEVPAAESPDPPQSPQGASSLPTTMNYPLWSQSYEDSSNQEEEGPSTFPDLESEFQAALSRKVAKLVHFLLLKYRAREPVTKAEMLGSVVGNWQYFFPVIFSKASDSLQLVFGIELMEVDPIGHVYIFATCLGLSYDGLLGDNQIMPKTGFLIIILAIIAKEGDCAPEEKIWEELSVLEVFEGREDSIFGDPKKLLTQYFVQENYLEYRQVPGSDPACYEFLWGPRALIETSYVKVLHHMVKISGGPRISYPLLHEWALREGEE

| Variant | effect of a mutation on the interaction |
| --- | --- |
| F102C | with no effect |

Variants of: B1
Conditions: with m3k1_human MAP3K1, Q13233

| Variant | effect of a mutation on the interaction |
| --- | --- |
| F102C | with no effect |

Variants of: B1
Conditions: with mk10_human MAPK10, P53779
Sequence of mk10_human MAPK10, P53779 (P53779 whole entry): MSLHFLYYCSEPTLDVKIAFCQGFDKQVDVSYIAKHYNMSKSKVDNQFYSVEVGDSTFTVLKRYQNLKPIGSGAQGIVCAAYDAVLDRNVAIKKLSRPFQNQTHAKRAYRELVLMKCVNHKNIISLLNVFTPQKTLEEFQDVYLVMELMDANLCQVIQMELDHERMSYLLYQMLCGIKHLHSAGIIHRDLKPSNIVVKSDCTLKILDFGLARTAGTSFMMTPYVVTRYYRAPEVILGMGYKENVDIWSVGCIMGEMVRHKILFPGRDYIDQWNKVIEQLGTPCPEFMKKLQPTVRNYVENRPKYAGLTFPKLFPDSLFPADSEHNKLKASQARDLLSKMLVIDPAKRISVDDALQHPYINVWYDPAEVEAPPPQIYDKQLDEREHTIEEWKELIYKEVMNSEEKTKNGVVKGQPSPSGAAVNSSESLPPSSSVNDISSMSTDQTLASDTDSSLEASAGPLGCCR

| Variant | effect of a mutation on the interaction |
| --- | --- |
| F102C | with no effect |

Variants of: B1
Conditions: with mk14_human MAPK14, Q16539

| Variant | effect of a mutation on the interaction |
| --- | --- |
| F102C | with no effect |

Variants of: B1
Conditions: with mk03_human MAPK3, P27361

| Variant | effect of a mutation on the interaction |
| --- | --- |
| F102C | with no effect |

Variants of: B1
Conditions: with mk04_human MAPK4, P31152
Sequence of mk04_human MAPK4, P31152 (P31152 whole entry): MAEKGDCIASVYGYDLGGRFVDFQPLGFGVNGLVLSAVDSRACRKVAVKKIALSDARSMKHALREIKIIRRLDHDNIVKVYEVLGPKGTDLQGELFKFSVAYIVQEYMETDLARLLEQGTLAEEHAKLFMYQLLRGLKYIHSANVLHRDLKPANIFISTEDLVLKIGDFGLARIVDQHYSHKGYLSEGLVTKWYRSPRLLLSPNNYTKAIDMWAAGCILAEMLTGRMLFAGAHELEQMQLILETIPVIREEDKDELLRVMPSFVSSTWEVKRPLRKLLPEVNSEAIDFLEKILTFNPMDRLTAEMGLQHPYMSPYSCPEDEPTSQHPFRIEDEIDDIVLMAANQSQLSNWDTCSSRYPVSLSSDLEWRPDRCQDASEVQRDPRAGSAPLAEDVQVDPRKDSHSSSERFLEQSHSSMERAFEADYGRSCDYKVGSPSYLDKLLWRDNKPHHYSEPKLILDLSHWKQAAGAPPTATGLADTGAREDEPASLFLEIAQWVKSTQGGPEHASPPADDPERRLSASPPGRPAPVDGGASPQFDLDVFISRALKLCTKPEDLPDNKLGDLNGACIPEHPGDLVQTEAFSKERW

| Variant | effect of a mutation on the interaction |
| --- | --- |
| F102C | with no effect |

Variants of: B1
Conditions: with mk06_human MAPK6, Q16659

| Variant | effect of a mutation on the interaction |
| --- | --- |
| F102C | with no effect |

Variants of: B1
Conditions: with sin1_human MAPKAP1, Q9BPZ7
Sequence of sin1_human MAPKAP1, Q9BPZ7 (Q9BPZ7 whole entry): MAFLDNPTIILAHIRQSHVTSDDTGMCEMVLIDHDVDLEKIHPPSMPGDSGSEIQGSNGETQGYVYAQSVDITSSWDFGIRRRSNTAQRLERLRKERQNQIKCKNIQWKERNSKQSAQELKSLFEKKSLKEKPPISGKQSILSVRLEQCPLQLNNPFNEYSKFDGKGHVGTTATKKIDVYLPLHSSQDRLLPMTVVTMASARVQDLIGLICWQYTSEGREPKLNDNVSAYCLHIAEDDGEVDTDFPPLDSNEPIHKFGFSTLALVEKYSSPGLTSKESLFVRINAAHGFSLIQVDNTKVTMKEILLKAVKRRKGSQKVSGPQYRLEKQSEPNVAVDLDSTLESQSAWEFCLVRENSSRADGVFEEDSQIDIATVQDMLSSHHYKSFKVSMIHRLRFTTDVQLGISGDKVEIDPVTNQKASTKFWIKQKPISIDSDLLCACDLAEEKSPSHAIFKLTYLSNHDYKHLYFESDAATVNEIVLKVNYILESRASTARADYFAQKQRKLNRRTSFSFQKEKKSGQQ

| Variant | effect of a mutation on the interaction |
| --- | --- |
| F102C | with no effect |

Variants of: B1
Conditions: with mcl1_human MCL1, Q07820

| Variant | effect of a mutation on the interaction |
| --- | --- |
| F102C | with no effect |

Variants of: B1
Conditions: with mdm2_human MDM2, Q00987
Sequence of mdm2_human MDM2, Q00987 (Q00987 whole entry, looked up): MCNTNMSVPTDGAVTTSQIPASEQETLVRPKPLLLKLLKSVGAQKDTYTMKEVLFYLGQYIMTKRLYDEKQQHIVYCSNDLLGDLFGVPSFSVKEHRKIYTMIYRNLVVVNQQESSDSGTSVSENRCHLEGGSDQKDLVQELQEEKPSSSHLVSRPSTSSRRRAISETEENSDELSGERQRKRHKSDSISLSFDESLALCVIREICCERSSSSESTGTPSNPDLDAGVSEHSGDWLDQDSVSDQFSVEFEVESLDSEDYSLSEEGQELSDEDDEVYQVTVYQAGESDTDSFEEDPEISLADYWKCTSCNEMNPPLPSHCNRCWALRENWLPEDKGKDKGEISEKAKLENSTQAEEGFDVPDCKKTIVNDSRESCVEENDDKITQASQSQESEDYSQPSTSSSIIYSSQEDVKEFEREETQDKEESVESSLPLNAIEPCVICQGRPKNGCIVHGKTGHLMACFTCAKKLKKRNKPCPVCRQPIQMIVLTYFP

| Variant | effect of a mutation on the interaction |
| --- | --- |
| F102C | with no effect |

Variants of: B1
Conditions: with mef2a_human MEF2A

| Variant | effect of a mutation on the interaction |
| --- | --- |
| F102C | with no effect |

Variants of: B1
Conditions: with mitf_human MITF

| Variant | effect of a mutation on the interaction |
| --- | --- |
| F102C | with no effect |

Variants of: B1
Conditions: with mtor_human MTOR

| Variant | effect of a mutation on the interaction |
| --- | --- |
| F102C | with no effect |

Variants of: B1
Conditions: with mybb_human MYBL2, P10244
Sequence of mybb_human MYBL2, P10244 (P10244 whole entry): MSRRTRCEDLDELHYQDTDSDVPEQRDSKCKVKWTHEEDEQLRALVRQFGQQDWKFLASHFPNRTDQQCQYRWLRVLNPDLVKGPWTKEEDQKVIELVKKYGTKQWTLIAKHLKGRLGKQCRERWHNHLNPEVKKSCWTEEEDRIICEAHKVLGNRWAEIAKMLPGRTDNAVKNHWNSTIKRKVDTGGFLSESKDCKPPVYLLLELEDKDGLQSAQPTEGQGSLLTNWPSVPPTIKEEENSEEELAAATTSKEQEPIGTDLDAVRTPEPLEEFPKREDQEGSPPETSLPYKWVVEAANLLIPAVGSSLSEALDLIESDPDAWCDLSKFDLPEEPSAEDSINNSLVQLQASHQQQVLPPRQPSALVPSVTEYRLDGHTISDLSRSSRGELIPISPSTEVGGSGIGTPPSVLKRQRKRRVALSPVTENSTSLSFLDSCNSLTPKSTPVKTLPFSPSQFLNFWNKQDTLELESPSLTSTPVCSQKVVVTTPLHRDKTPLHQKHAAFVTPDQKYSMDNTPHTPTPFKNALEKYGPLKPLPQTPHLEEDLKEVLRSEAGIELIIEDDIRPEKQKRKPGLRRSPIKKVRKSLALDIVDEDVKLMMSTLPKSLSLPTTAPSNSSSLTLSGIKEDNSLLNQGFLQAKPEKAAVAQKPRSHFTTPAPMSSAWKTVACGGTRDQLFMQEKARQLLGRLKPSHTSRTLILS

| Variant | effect of a mutation on the interaction |
| --- | --- |
| F102C | with no effect |

Variants of: B1
Conditions: with myc_human MYC

| Variant | effect of a mutation on the interaction |
| --- | --- |
| F102C | with no effect |

Variants of: B1
Conditions: with mycn_human MYCN

| Variant | effect of a mutation on the interaction |
| --- | --- |
| F102C | with no effect |

Variants of: B1
Conditions: with ncoa3_human NCOA3, Q9Y6Q9
Sequence of ncoa3_human NCOA3, Q9Y6Q9 (Q9Y6Q9 whole entry, looked up): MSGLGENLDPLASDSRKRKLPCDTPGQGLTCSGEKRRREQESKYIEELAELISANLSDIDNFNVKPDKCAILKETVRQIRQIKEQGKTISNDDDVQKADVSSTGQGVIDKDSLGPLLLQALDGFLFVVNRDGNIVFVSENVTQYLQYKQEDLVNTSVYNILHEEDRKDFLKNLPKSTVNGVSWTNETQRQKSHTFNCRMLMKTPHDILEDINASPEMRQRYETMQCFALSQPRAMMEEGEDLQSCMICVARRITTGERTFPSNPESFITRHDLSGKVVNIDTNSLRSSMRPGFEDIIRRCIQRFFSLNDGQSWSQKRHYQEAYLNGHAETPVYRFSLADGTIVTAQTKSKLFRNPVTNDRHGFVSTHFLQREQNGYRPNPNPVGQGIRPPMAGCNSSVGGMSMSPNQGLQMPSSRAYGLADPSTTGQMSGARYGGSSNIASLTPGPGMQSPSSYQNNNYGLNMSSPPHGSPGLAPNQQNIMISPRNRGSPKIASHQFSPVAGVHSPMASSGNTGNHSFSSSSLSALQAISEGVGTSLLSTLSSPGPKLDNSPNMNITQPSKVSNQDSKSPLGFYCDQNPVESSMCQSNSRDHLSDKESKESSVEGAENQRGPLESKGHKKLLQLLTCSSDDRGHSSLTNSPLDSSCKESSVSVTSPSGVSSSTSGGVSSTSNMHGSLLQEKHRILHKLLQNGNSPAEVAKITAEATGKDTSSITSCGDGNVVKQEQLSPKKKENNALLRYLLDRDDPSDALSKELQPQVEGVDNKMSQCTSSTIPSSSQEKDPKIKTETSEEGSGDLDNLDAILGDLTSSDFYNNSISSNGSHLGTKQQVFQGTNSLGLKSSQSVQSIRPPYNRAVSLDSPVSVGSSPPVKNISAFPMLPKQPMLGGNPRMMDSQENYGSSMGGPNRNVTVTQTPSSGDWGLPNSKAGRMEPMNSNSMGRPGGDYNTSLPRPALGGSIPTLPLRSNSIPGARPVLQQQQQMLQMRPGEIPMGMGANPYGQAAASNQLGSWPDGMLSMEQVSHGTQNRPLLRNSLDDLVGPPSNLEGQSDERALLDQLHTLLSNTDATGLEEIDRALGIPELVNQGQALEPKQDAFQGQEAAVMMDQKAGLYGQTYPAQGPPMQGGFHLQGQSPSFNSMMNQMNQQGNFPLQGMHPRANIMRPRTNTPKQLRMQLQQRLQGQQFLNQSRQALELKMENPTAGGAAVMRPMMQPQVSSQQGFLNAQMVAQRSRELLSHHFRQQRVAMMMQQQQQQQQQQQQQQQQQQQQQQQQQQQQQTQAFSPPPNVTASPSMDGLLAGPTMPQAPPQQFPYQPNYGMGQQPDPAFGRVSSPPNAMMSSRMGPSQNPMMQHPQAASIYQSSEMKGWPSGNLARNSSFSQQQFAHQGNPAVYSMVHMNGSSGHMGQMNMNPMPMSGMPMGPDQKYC

| Variant | effect of a mutation on the interaction |
| --- | --- |
| F102C | with no effect |

Variants of: B1
Conditions: with ikba_human NFKBIA

| Variant | effect of a mutation on the interaction |
| --- | --- |
| F102C | with no effect |

Variants of: B1
Conditions: with nox1_human NOX1, Q9Y5S8

| Variant | effect of a mutation on the interaction |
| --- | --- |
| F102C | with no effect |

Variants of: B1
Conditions: with ntrk2_human NTRK2, Q16620

| Variant | effect of a mutation on the interaction |
| --- | --- |
| F102C | with no effect |

Variants of: B1
Conditions: with ntrk3_human NTRK3, Q16288

| Variant | effect of a mutation on the interaction |
| --- | --- |
| F102C | with no effect |

Variants of: B1
Conditions: with pak3_human PAK3, O75914

| Variant | effect of a mutation on the interaction |
| --- | --- |
| F102C | with no effect |

Variants of: B1
Conditions: with prkn_human PRKN

| Variant | effect of a mutation on the interaction |
| --- | --- |
| F102C | with no effect |

Variants of: B1
Conditions: with pcbp1_human PCBP1, Q15365

| Variant | effect of a mutation on the interaction |
| --- | --- |
| F102C | with no effect |

Variants of: B1
Conditions: with pdcd1_human PDCD1, Q15116

| Variant | effect of a mutation on the interaction |
| --- | --- |
| F102C | with no effect |

Variants of: B1
Conditions: with pgfrb_human PDGFRB

| Variant | effect of a mutation on the interaction |
| --- | --- |
| F102C | with no effect |

Variants of: B1
Conditions: with pdk1_human PDK1, Q15118

| Variant | effect of a mutation on the interaction |
| --- | --- |
| F102C | with no effect |

Variants of: B1
Conditions: with PIK3C2B

| Variant | effect of a mutation on the interaction |
| --- | --- |
| F102C | with no effect |

Variants of: B1
Conditions: with pk3ca_human PIK3CA

| Variant | effect of a mutation on the interaction |
| --- | --- |
| F102C | with no effect |

Variants of: B1
Conditions: with pk3cb_human PIK3CB

| Variant | effect of a mutation on the interaction |
| --- | --- |
| F102C | with no effect |

Variants of: B1
Conditions: with pk3cg_human PIK3CG

| Variant | effect of a mutation on the interaction |
| --- | --- |
| F102C | with no effect |

Variants of: B1
Conditions: with p85b_human PIK3R2, O00459

| Variant | effect of a mutation on the interaction |
| --- | --- |
| F102C | with no effect |

Variants of: B1
Conditions: with dpod1_human POLD1, P28340

| Variant | effect of a mutation on the interaction |
| --- | --- |
| F102C | with no effect |

Variants of: B1
Conditions: with dpoe1_human POLE

| Variant | effect of a mutation on the interaction |
| --- | --- |
| F102C | with no effect |

Variants of: B1
Conditions: with ppard_human PPARD

| Variant | effect of a mutation on the interaction |
| --- | --- |
| F102C | with no effect |

Variants of: B1
Conditions: with prdm1_human PRDM1, O75626

| Variant | effect of a mutation on the interaction |
| --- | --- |
| F102C | with no effect |
